Experimental data: the supplement of paper PMC9170038

Tested on: MS2 coat protein
Assay: apparent KD of MS2 coat protein; designed switch direction (-1 OFF switch, 1 ON switch): -1; higher = weaker reporter binding
Outline: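 An oligonucleotide input, 200 uM small-molecule ligand, or no input was present during titration of SNAP-549-labelled MS2 coat protein, which was doubled from 0.7 or 1.5 nM to 3 µM. Designed RNA switches had been transcribed on Illumina chips by stalled E. coli RNA polymerase. Apparent KD per design is the median over clusters of curves fitted to normalised cluster fluorescence.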

[1] = Eterna round: R95, input ligand: FMN 200 uM
[2] = Eterna round: R95, input ligand: microRNA oligo, concentration not stated
[3] = Eterna round: R95, input ligand: none

| Sequence | apparent KD of MS2 coat protein [2] [nM] | apparent KD of MS2 coat protein (input ligand: FMN 200 uM) [nM] | apparent KD of MS2 coat protein (input ligand: none) [nM] | further results |
| --- | --- | --- | --- | --- |
| GAAAAGGUAGGAUAUACGAAAAAAAAGGGUAGAAAAAAAACACAUGAGGAUCACCCAUGUAGAAGGACCAAAAU [salish99_ex2_r3_051] (puzzle: Exclusion 2) | 29.2 | – | – | apparent KD of MS2 coat protein [1]: 76.9 nM; apparent KD of MS2 coat protein [3]: 26.7 nM |
| GAAAAGGUAGGAUAUACGAAAAAAAAGGGUAGGAAAAAAACACAUGAGGAUCACCCAUGUAGAAGGACCAAAAG [salish99_ex2_r3_024] (puzzle: Exclusion 2) | 21.8 | – | – | apparent KD of MS2 coat protein [1]: 61.7 nM; apparent KD of MS2 coat protein [3]: 19.8 nM |
| GAAGAAGAGAGAAAAGAAAACAUGAGGAUCACCCAUGUGAGAAGAUGAGGGUGAUACAGGCUAUAUGCUCGUCUUAU (puzzle: Sensor v3, turn-off variant 1) | 28.8 | – | – | apparent KD of MS2 coat protein [1]: 247 nM; apparent KD of MS2 coat protein [3]: 295 nM |
| GAAGUAUGAGUUAGGAUAUGAUGAUUUUUAUUAAAUCAGAAGGAACUUGAGGAUCACCCAAGUAAAGAAUUGGU [JR_BMEx4_Sub070] (Eterna round: R97, puzzle: Brourd's mod of Exclusion 4) | – | 16.1 | 15.6 | – |
| GAAUAGAGAGGAUAUGCGUAGUAGGUAGUAAGAUAUAUAUGACAUGAGGAUCACCCAUGUAGAAGGCUCAGAUA [EX2 #2] (Eterna round: R97, puzzle: Exclusion 2) | – | 38.3 | 35.8 | – |
| GAAUGAGAGCAGGAUAUCUUAUAAAUGUAUGAAAGAGAAGGGCUCACAUGAGGAUCACCCAUGUGGUCCUAAAU [jl-ex6-4.74 jandersonlee mod] (Eterna round: R97, puzzle: Exclusion 6) | – | 286 | 44.5 | – |
| GACAAGGGAGGAUAUGCACAAGGGAUAUCUGACAUGCCGUUACAUGAGGAUCACCCAUGUAGAAGGCCCGAAUA [Didiin] (puzzle: Exclusion 2) | 13.3 | – | – | – |
| GACAAGGUGUAGGAUAUGCUUAGCCUUAAGAAAGCAGAAGGACAAACUUGAGGAUCACCCAAGUGGUCCAAACA [Diraveti] (Eterna round: R97, puzzle: Exclusion 6) | – | 65.5 | 19.6 | – |
| GACACCAAAGGAUAUACAUGAGGAUCACCCAUGUGCUGCAAAAGCUGAGCUCAAAUGUGUAGAAGGUUGAAAUA [Eternabot (Original) Solution 40] (Eterna round: R97, puzzle: Exclusion 3) | – | 39 | 31.6 | – |
| GACCAACGGGUUUACCUUUACAUGAGGAUCACCCAUGUCGCAAGCUUUUUCUCGGGUCCAAUCUUAUAAAUAUUAAU [Legedi] (puzzle: Sensor v3, turn-off variant 1) | 314 | – | – | apparent KD of MS2 coat protein [1]: 144 nM; apparent KD of MS2 coat protein [3]: 179 nM |
| GACGUGUGAGGAUAUCCGAUGCCGGUCCGGAAGGUUCGGGUGGAGAAGGCACAUGAGGAUCACCCAUGUGUAAG [Excls4-VII] (puzzle: Exclusion 4) | 16.4 | – | – | – |
| GACGUGUUAGGAUAUAGCUCUCGGGACAGCAAUGAUCCGAGUUAGAAGGAACAUGAGGAUCACCCAUGUUAUUU [Eternabot (L2) Solution 60] (Eterna round: R97, puzzle: Exclusion 4) | – | 18.4 | 21.1 | – |
| GACUAGGCAGGAUAUACAUGAGGAUCACCCAUGUGUCUGCGUUAAGCACGUGAAGACGGUAGAAGGGCCUUCAC [ChP 13.04.2015 #17] (puzzle: Exclusion 3) | 10.3 | – | – | – |
| GACUGAAUUUUGUUUGGUUACAUGAGGAUCACCCAUGUUGGUCUAAGAACAUGUCUUUUGUACGCUUGUCUUAUAUA [JR_SV3TOV1_Sub069] (puzzle: Sensor v3, turn-off variant 1) | 44.9 | – | – | apparent KD of MS2 coat protein [1]: 68.9 nM; apparent KD of MS2 coat protein [3]: 100 nM |
| GAGAAGGUAGGAUAUACGAAGAAAGAGGGUAGGAAGAAGACACAUGAGGAUCACCCAUGUAGAAGGACCAAGAG [Mat - Exclusion 2 - Mod of my Tesla design - D48] (puzzle: Exclusion 2) | 13.9 | – | – | apparent KD of MS2 coat protein [1]: 27.1 nM; apparent KD of MS2 coat protein [3]: 14.1 nM |
| GAGAGAGCCAUAGGAUAUGCCCGCCCGCUUGCGGCAGAAGGAUGUUGACAUGAGGAUCACCCAUGUGGAUCGCCCAUGUUUGUG [All by luck] (Eterna round: R96, puzzle: Exclusion NG 1) | – | 604 | 286 | apparent KD of MS2 coat protein (input ligand: microRNA oligo, concentration not stated): 191 nM |

| Sequence | apparent KD of MS2 coat protein [2] [nM] | apparent KD of MS2 coat protein (input ligand: FMN 200 uM) [nM] | apparent KD of MS2 coat protein (input ligand: none) [nM] | further results |
| --- | --- | --- | --- | --- |
| GAGAGCAACGUCAGGAUAUUUAACCAAAACGCGGUAGAGAAGGGACAUGAGGAUCACCCAUGUGACUUCGGGCA [Eternabot (L1) Solution 83] (Eterna round: R97, puzzle: Brourd's mod of Exclusion 4) | – | 15.5 | 16.8 | – |
| GAGCUGUGAGGAUAUACAUGAGGAUCACCCAUGUAAUGGUAGUCGGGAUUAAUUUGGUGUAGAAGGCGCUUAUU [JR_Ex3_Sub020] (Eterna round: R97, puzzle: Exclusion 3) | – | 41 | 46 | – |
| GAGGAUAGAGGAUAUGCAUAGAUACGGAUUCGUGUAGUACUACAUGAGGAUCACCCAUGUAGAAGGCUGUCCAG [Mat - Exclusion 2 - Mod of JL - D75] (puzzle: Exclusion 2) | 12.8 | – | – | – |
| GAGGCAUGCCUAGGUCCACACAUGAGGAUCACCCAUGUAAUGACAGGCUUUUUACUCGUUUUAUCGCUAUCGCGUUC [Enaor] (puzzle: Sensor v3, turn-off variant 1) | 20.7 | – | – | apparent KD of MS2 coat protein [1]: 13.2 nM; apparent KD of MS2 coat protein [3]: 11.8 nM |
| GAGGUCGCAGGAUAUAGUACAUAGAACAUGAGGAUCACCCAUGUAGCGGGAGGUUCUAUAUUAGAAGGGUGAAGUC [Eternabot (L2) Solution 97] (Eterna round: R97, puzzle: Exclusion 5) | – | 572 | 494 | – |
| GAGUGACAUGAGGAUCACCCAUGUGAGGAUAUCGGACGGACCAAAUUAACAAUAGAAGCGAGAAGGCACAUAAG [Exclusion 1 V11] (puzzle: Exclusion 1) | 74.3 | – | – | apparent KD of MS2 coat protein [1]: 72.4 nM; apparent KD of MS2 coat protein [3]: 81.3 nM |
| GAGUUAGCGUGUGGCACAUACAUGAGGAUCACCCAUGUUAGCUUAUAUAUUGCUCGUCUUAUAACAACACUUAACUG [Mod JX-Electric-eye5] (Eterna round: R97, puzzle: Sensor, turn-off variant 1) | – | 22.5 | 23.9 | – |
| GAUACACAUGAGGAUCACCCAUGUGAGGAUAUGCGUACGUUGUCCGUAGGCGACGUGCGCAGAAGGCGCAAGGU [Mat - Mod of JL D96] (puzzle: Exclusion 1) | 55 | – | – | – |
| GAUACCUAUGUAAGGAUAUAUAAAGAGAGCCGCCUGUAGAAGGUACAUGAGGAUCACCCAUGUUGGGAGACCGA [Eternabot (L1) Solution 17] (Eterna round: R97, puzzle: Brourd's mod of Exclusion 4) | – | 1160 | 1390 | – |
| GAUCAACAUGAGGAUCACCCAUGUGAGGAUAUGUAUCAUAGAUCUUCGGAUCUAUGAUACAGAAGGCAUGUAGG [Ex1-3: 100] (puzzle: Exclusion 1) | 74.2 | – | – | – |
| GAUCAGAUAGGAUAUACAGGCCCGUCUUUAUAUUGAUCCCGACAUGAGGAUCACCCAUGUAGAAGGAUCAGAUC [Mod 28 - Jieux - Exclusion 2] (Eterna round: R97, puzzle: Exclusion 2) | – | 23.3 | 17.5 | – |
| GAUCAUGCAGGAUAUACAGUUUCCAUGAAAACAUGGAACUCACAUGAGGAUCACCCAUGUAGAAGGGCAUGAUC [Omei Ex2 A26] (Eterna round: R97, puzzle: Exclusion 2) | – | 25.9 | 16.2 | – |
| GAUCAUGCAGGAUAUACAGUUUCCAUGAAAACAUGGUCCUCACAUGAGGAUCACCCAUGUAGAAGGGCAUGAUC [Omei Ex2 A28] (Eterna round: R97, puzzle: Exclusion 2) | – | 151 | 1490 | – |
| GAUCCACAUGAGGAUCACCCAUGUGAGGAUAUGAUACUAUGUACUUCGGUACAUAGUAUCAGAAGGCACAUUGA [Ex1-3: 45] (puzzle: Exclusion 1) | 136 | – | – | – |
| GAUCCUUCUGUUAGGAUAUGCUUUGGGCUUCCGCAGCAGAAGGAACAUGAGGAUCACCCAUGUCAAAUAAAAUC [salish99_bmex4_r4_501] (Eterna round: R97, puzzle: Brourd's mod of Exclusion 4) | – | 25.5 | 27.1 | – |
| GAUCCUUCUGUUAGGAUAUGCUUUGGGCUUCCGCAGCAGAAGGAACAUGAGGAUCACCCAUGUCCAAUGCCAUC [salish99_bmex4_r4_505] (Eterna round: R97, puzzle: Brourd's mod of Exclusion 4) | – | 46.1 | 39.1 | – |
